T1: proteasome (Saccharomyces cerevisiae, UniProt P43593)
T1 sequence (P43593 1-499): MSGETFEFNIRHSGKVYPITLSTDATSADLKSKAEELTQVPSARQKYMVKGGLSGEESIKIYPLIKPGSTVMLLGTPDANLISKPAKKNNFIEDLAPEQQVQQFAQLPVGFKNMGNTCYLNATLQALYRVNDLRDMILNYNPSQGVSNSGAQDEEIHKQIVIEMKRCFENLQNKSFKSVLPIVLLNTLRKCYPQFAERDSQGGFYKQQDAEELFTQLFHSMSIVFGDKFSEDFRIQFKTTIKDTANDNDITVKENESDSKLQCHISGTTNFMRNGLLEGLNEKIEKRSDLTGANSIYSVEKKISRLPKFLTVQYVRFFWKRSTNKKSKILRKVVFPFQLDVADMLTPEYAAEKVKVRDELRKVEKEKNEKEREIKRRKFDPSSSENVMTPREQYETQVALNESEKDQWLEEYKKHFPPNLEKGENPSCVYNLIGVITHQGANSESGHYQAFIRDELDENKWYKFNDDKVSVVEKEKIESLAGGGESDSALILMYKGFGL

B1: Ubp6: yeast proteasomal deubiquitinating enzyme, endogenous proteasome inhibitor; purified recombinant protein (protein)
chain: T1 sequence (P43593 1-499)
B2: GST-Ubp6: GST fusion of Ubp6 on resin (protein)
chain: T1 sequence (P43593 1-499)
modifications: left off: a dimerising Fc or GST
notes: GST fusion of Ubp6 on resin

Key:
ubp6Δ proteasomes [1] = target: T2, ubp6Δ proteasomes (Saccharomyces cerevisiae, UniProt P30656+P43588); assay: In vitro ub-cyclin B deubiquitination/degradation assay with purified yeast proteasomes; type: biochemical; conditions: ubp6Δ proteasomes 135 nM; recombinant Ubp6 or Usp14 species 540 nM, Ubl and Ubl-MBP 1.35 μM, preincubated 5 min; immunoblot
T2 construct: proteasomes purified from ubp6Δ mutants; TEV-ProA (TEV site + protein A), chromosomally integrated (C); made in house
Procedure: Proteasomes (135 nM) were incubated with ub-cyclin Bin the presence of 1 mM ATP and buffer (50 mM Tris [pH 7.51, 1 mM EDTA, 5 mM MgCl2) for the indicated times. Reactions were terminated by the addition of 5×SDS Laemmli loading buffer (Leggett, et al. (2002). Multiple associated proteins regulate proteasome structure and function. Mol. Cell. 10, 495-507) and boiled for 5 min. Where indicated, recombinant, purified Ubp6 or Usp14 species (540 nM) were preincubated with proteasomes for 5 min prior to the reaction. […] Unless otherwise noted, immunoblots were visualized with anti-cyclin B1 polyclonal antibodies. Polyclonal antibodies recognizing Ubp6, Rpn5, Rpn12, and ubiquitin were used as indicated. Ub-cyclin B was added in molar excess over proteasome, generally on the order of 25-fold, except for FIGS. 4C, 6A and 6B, where the substrate:enzyme ratio was increased by a factor of five.
In the experiments of FIGS. 1, 4 (except FIG. 4C), and 6C, time points were sampled after the preparation of a single reaction mixture. The zero time points therefore reflect a lag which represents the amount of time required to sample the first time point after having prepared the reaction mixture. […] In the experiments of FIGS. 2, 4C, and 6 (except 6C), each time point was carried out as an independent reaction. The zero time points were prepared in the presence of 5×LLB, and accordingly, no processing could occur before time zero.
Ubiquitination of cyclin B was carried out. Briefly, for each 30 μl reaction, Anaphase Promoting Complex (APC) was immunopurified from 600 μl of mitotic Xenopus egg extract with 12 μg of anti-Cdc27 antibodies (AF3.1, Santa Cruz Biotechnologies, Santa Cruz, Calif.) bound to 30 μl of Affiprep Protein A beads (Bio-Rad, Hercules, Calif.). Beads were washed three times with XB high salt (10 mM potassium HEPES pH 7.7, 500 mM KCl, 0.1 mM CaCl2, 1 mM MgCl2), two times with XB (same but with 100 mM KCl), and then three times into the reaction buffer (20 mM Tris pH 7.5, 100 mM KCl, 2.5 mM MgCl2, 2 mM ATP). Ubiquitination reactions contained immunoprecipitated APC on 30 μl of beads, and 30 μl of a mix containing recombinant MBP-human E1 at 200 μg/ml, histidine-tagged Ubc4 at 66 μg/ml, ubiquitin at 1.25 mg/ml, and 50 μg/ml of histidine-tagged cyclin B1/cdc2 complex expressed in baculovirus. Reactions were incubated for 90 minutes at 22° C. with agitation on a shaker at 1,000 RPM. Reaction supernatants were combined with the eluate from the wash of beads with 20 μl of reaction buffer. Reactions were either used fresh after preparation or frozen at −80° C. until use with purified proteasomes.

26S human proteasomes = target: T3, 26S human proteasomes (Homo sapiens, UniProt O00487); assay: In vitro Ubn-cyclin B1 degradation assay with human proteasomes; type: biochemical; conditions: 4 nM human proteasomes, about 30 nM ubiquitinated cyclin B, Usp14 60 nM preincubated 5 min
T3 construct: HTBH (C); made in house; complex purified from it
Procedure: A stable 293 cell line expressing hRpn11-HTBH was used. Human proteasomes were purified as previously described with some modifications (Wang X and Huang L (2007) Identifying dynamic interactors of protein complexes by quantitative mass spectrometry. Mol Cell Proteomics. 2008 January; 7(1):46-57. Epub 2007 Oct. 12.
Assays were performed in proteasome preparation buffer (50 mM Tris [pH 7.5], 5 mM MgCl2, and 5 mM ATP) at ambient temperature for the indicated times. The 26S human proteasomes (4 nM) were incubated with approximately 30 nM of Ub-conjugated cyclin B1 as substrates. Cyclin was ubiquitinated using purified APC ubiquitin ligase. Where indicated, a 15-fold molar access of recombinant Usp14 over proteasomes were preincubated prior to adding Ubn-cyclin B1.
In the study shown in FIG. 14, 4 nM of human proteasomes were incubated with approximately 30 nM of ubiquitinated cyclin B in buffer (50 mM Tris [pH 7.5], 5 mM MgCl2, and 5 mM ATP). Where indicated, 15-fold molar access of Usp14 over proteasome (60 nM) was preincubated for 5 min before initiating degradation reactions. Ubiquitinated cyclin B was added at time zero. SDS-sample buffer was added to stop the reaction at the indicated time. Usp14 CA is a variant of Usp14 with a single amino acid substitution that eliminates the active site nucleophile of the enzyme (a cysteine to alanine replacement). […]

ubp6Δ proteasomes [2] = target: T2, ubp6Δ proteasomes; assay: Quantitation of proteasome inhibition by quantitative mass spectrometry of cyclin B; type: biochemical, yeast; conditions: 20-minute incubation
Procedure: A standard substrate degradation assay was carried out, and analyzed in parallel by SDS-PAGE followed by Coomassie blue staining and immunoblot with anti-cyclin B antibody. Immunoblots were used to identify and excise the cyclin B-containing regions of the Coomassie-stained gel, and the lanes were analyzed by mass spectrometry.
To quantify the extent of proteasome inhibition by Ubp6, a method of quantitative mass spectrometry was utilized. After a 20-minute incubation, approximately half of the total cyclin B was degraded by ubp6Δ proteasomes (FIG. 4C).

[3] = target: T4, RP purified from a ubp6Δ mutant (Saccharomyces cerevisiae, UniProt P43588); assay: Processing of ub-cyclin B by regulatory particle (RP); type: biochemical, yeast; conditions: RP 135 nM, four-fold molar excess of Ubp6 species
T4 construct: TEV-ProA (TEV site + protein A), chromosomally integrated (C); made in house
Procedure: FIGS. 6A and 6B depict the processing of ub-cyclin B by RP (ubp6Δ) in the presence or absence of purified Ubp6. Reactions were visualized by immunoblotting with anti-cyclin B antibody or anti-ubiquitin antibody, as indicated.
FIG. 12 is an illustration depicting the RP-mediated disassembly of Ub-cyclin B conjugates by Ubp6. Proteasome regulatory particle (135 nM) purified from a ubp6Δ strain was combined with a four-fold molar excess of Ubp6, Ubp6-ublΔ, or Ubp6-C118A, and Ub-Cyclin B, and incubated for the indicated times. Reactions were visualized by immunoblot with anti-ubiquitin antibody. *represents a non-ubiquitin immunoreactive band.
A previously described procedure for purification of the proteasome (Leggett, et al. (2002). Multiple associated proteins regulate proteasome structure and function. Mol. Cell. 10, 495-507) was modified by adding 1 mM ATP and 5 mM MgCl2 to all purification buffers, and by washing resins with 100 bed vol. of buffer containing 50 mM NaCl, as opposed to 50 bed vol. of buffer containing 100 mM NaCl. RP was purified in the presence of ATP and MgCl2 as described (Leggett et al., 2002).
Proteasomes (135 nM) were incubated with ub-cyclin Bin the presence of 1 mM ATP and buffer (50 mM Tris [pH 7.51, 1 mM EDTA, 5 mM MgCl2) for the indicated times. […]

proteasome = target: T1, proteasome; conditions: cited from earlier work
ubiquitin ethyl ester = conditions: cited from earlier work
Ub-cyclin B = target: T5, Ub-cyclin B (Homo sapiens, UniProt P14635); assay: Ub-cyclin B binding assay (GST pull down); conditions: GST resin pull down, immunoblot
T5 construct: histidine tag; made in house; host or cells: cyclin B1/cdc2: baculovirus expression; GST-Ubp6: pGEX-4T-1 (bacterial)
T5 sequence (P14635 whole entry, other chains not shown): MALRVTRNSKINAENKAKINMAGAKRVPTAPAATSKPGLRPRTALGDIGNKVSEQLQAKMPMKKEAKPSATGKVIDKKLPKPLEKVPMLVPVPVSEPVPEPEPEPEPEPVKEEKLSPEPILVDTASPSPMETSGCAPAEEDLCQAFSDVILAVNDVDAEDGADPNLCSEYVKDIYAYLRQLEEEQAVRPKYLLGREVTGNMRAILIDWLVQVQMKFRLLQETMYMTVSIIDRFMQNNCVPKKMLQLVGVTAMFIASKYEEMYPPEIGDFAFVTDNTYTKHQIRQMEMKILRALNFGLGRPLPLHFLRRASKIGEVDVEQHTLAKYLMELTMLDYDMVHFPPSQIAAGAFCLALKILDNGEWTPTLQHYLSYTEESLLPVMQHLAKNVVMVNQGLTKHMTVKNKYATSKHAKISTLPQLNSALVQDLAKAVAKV
T5 sequence (P06493 whole entry partner, other chains not shown): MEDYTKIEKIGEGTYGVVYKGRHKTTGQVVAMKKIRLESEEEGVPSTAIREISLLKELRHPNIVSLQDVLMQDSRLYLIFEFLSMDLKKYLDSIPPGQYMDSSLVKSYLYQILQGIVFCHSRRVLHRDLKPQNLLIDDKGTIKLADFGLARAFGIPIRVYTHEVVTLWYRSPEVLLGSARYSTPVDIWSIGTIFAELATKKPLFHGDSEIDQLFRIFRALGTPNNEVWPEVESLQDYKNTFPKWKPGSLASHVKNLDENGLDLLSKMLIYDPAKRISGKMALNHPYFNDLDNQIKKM

Row | Molecule | inhibition of cyclin B degradation (ubp6Δ proteasomes [1]) | suppression of cyclin B degradation by human proteasomes (26S human proteasomes) | inhibition of degradation (cyclin B) (ubp6Δ proteasomes [2]) | processing of ub-cyclin B conjugates by RP [3] | activation of Ubp6's catalytic activity on binding to the proteasome (proteasome) | KM of Ubp6 for ubiquitin ethyl ester (ubiquitin ethyl ester) | binding of Ub-cyclin B conjugates (Ub-cyclin B)
1 | Usp14: human homolog of Ubp6, purified recombinant deubiquitinating enzyme | largely recapitulated the effects of Ubp6 | suppression of cyclin B degradation |  |  |  |  | 
2 | B1 | marked inhibition of cyclin B degradation |  | approximately 70% | chain shortening | over 300 fold | so high as to be unmeasurable | 
3 | B2 |  |  |  |  |  |  | No detectable binding

Reference: US9201073B2, “Methods and compositions for enhancing proteasome activity” (President and Fellows of Harvard College, priority 2007, dated 2015)
